doi:10.1101/2025.11.26.690658 (bioRxiv, 2025)
Positions count from the first letter of the chain named.

B1: McsB (B. subtilis protein-arginine kinase subunit), coexpressed with McsAZ2 (enzyme)
chain: MSLKHFIQDALSSWMKQKGPESDIVLSSRIRLARNFEHIRFPTRYSNEEASSIIQQFEDQFSEQEIPGIGKFVLIRMNDAQPLEKRVLVEKHLISPNLTESPFGGCLLSENEEVSVMLNEEDHIRIQCLFPGFQLLEAMKAANQVDDWIEEKVDYAFNEQRGYLTSCPTNVGTGLRASVMMHLPALVLTRQINRIIPAINQLGLVVRGIYGEGSEAVGNIFQISNQITLGKSEQDIVEDLNSVAAQLIEQERSAREAIYQTSKIELEDRVYRSYGVLSNCRMIESKETAKCLSDVRLGIDLGIIKGLSSNILNELMILTQPGFLQQYSGGALRPNERDIRRAALIRERLHLEMNGKRQEDESI
modifications: phosphoarginine at 194 and 333 (pR194, pR333)
B2: CtsRCTD (C-terminal domain of CtsR, residues 75–154) (domain or fragment)
chain: KMNNEVVLINNIISQINTHLSQAASDDIILRLLEDKVISEREAKMMVSVMDRSVLHIDLPERDELRARMMKAMLTSLKLK
B3: CtsR (B. subtilis transcriptional repressor), full length (natural protein)
chain: MGHNISDIIEQYLKRVLDQNGKEILEIKRSEIADKFQCVPSQINYVINTRFTSERGYIVESKRGGGGYIRIIKIKMNNEVVLINNIISQINTHLSQAASDDIILRLLEDKVISEREAKMMVSVMDRSVLHIDLPERDELRARMMKAMLTSLKLK

How the values were obtained:
[1] = target: McsAZ2-McsB complex (heterotetramer of a McsB dimer and two McsAZ2) (Bacillus subtilis strain 168) (UniProt P37569); assay: cryo-EM structure
[2] = target: the molecule itself; assay: cryo-EM structure
[3] = target: T1, McsB(R194A), the McsB chain of the McsAZ2(R115A)-McsB(R194A) mutant (Bacillus subtilis strain 168, UniProt P37570 1-363, R194A); assay: SEC
T1 sequence: B1 chain with R194A

Molecule	binding result [3]	also measured
McsAZ2-McsB complex (heterotetramer of a McsB dimer and two McsAZ2) (from UniProt P37569;P37570)	–	stoichiometry N [1]: 2 tetramers
B1	–	stoichiometry N [2]: 2
B2	binds	–
B3	binds	–
